assay: yeast display, Sf9 membrane polyspecificity reagent, FACS + sequencing; frameworks hold sequencing errors
How it was run: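 Galactose induction of a Saccharomyces cerevisiae BJ5465 synthetic nanobody display library ran 36–48 hours. The cells were then stained for 1 hour at 4 °C with 10% biotinylated, detergent-solubilized Sf9 membrane reagent, pulled down on streptavidin microbeads and FACS-sorted into low and high (top ~1%) gates on expression and reagent-binding fluorescence. Labels for polyreactivity follow the gate of origin.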

| Sequence | polyreactivity (PSR sort gate) |
| --- | --- |
| QVQLVESRGGLVQAGGSLRLSFPDSGSTYVKNAMGWYRHAPGKERELVARISYSGGSTYADSVKGRFTISRDNAKNTVYLQMNSLKPEDSAVYYCNARTHNWWDGDGVYSQSLYDYWGQGTQVTVSS | low polyreactivity |
| QVQLVESRGGLVQAGGSLRLSSAASGRTFRSYVMGWYTPAPGKERQLVAAITRSGGSTYYADSVKGRFTISRDNAKNTVYLQMNSLKPEDTAVYYCATDRWYYYPDYYPYGEYDYWGQGTQVTVSS | low polyreactivity |
| QVQLVESRGGLVQAGGSLRLSYAASGYFFRYNSMGWYRQAPGTERELVAAMSRGGTTYYADSVTGRFTISRDNAMNTVYLQMNSLKPEDTEVYYCAAGRKVQSRRYGYWGQGTQVTVSS | high polyreactivity |
| QVQLVESRGGLVQAGGSLRLTCAASGSTFTHYAMGWYRQAPGKERELVAAISSGGGSTYYADSVKGRFTISRDNAKNTVYVQMNSLKPEDTAVYYCAVRSQFRAWRFYYWGQGTQVNVSS | high polyreactivity |
| QVQLVESRGGLVQAGGSVRLSFAASGRILKYNAMGWYRQAPGKERELVAAISYRGGSTYYADSVKGRFTISRDNAKNTVYLQMNSLKPEDTAVYYCAALTESTSYGYWGQGTQVTVSS | low polyreactivity |
| QVQLVESRGRLVQAVGSLRLSCAASGFTFDSYPMGWYRHAPRKEMEFVAGITDLGDYTYYADSVKGRFTISRDTAKNTVFLQMKSLKPEDTEVYYCNDTTGYKHAWRCENGYWGQGTQVTVSS | low polyreactivity |
| QVQLVESSGGLVQAGGSLRLSCAASGRTFSRNAMGWYRQAPGKERELVAAITYSGGTTYYADSVKGRFTISRDNAKNTVYLQMNSLKPEDTAVYYCATPSRKSGVGYPSYNYWGQGTQVTVSS | high polyreactivity |
| QVQLVESSGGLVQAGGSLRLSCADSGIIFQNYEMGWYRQAPGKDRELVAAITGSGGSTYYADSVKGRFTISRDNAKNTVYLQMNSLKPEDTAVDYCNADWEYYGKSDYWGQGTQVTVAS | low polyreactivity |
| QVQLVESSGGLVQAGGSLRLSCAHSGIIFYCYAMGCYRHSPGNLRELVAAISNNGGSTYPDSVKGRFTISRDNAKNTVYLQMNSLKPEDTAVYYGDAHPTGGVGFDAYYWGQGTQVTVSS | low polyreactivity |
| QVQLVESSGGLVQAGGSLSLSCADSGIIFYRYAMGWYIQAQGQERELVAAITWSGVSTSYADSVKGRFTISRDNAKNTVSIQMNSLKPEDTAVYYCNKDPGTLYGDMDSWGQGTQVTVSS | low polyreactivity |
| QVQLVESVGCLVQAGGSLRLSCATSGSIFRYYTMGWYRQPPGKERELVARISSSGSTNYADSVKGRFTISRDNGKNTVYLQMNSLKPEDTAVYYCAARGFSWAGYFYWGQGTQVTVSS | low polyreactivity |
| QVQLVESVGGIVQAGGSLRLSCAASGRTFYVYAMGWYRQARGKERELVASIRWRGSTYYADSVKGRFTISRDNAKNTVYLKMNSLKPEDTAVYYCAARYPYELGFDYWGQGTQVTVSS | low polyreactivity |
| QVQLVESVGGLLQAGGSLRLSCAASGSIFDVYTMGWYRQAPGKVRELFAAINTGGGSTYYADSVKGRFTISRDNAKNTVYCQMNSLKPEVTAVYYCAASVYHYGPLYYWGQGTQVTVSS | low polyreactivity |
| QVQLVESVGGLVLAGGSLRLSCAASGSIFIVNAMGWYRQAPGKERELVAAISGRGGNTNYADSVKGRFTISRDNAKNTVYLQMNSLKPEDTAVYYCAARHTRDYDYWGQGTQVTVSS | low polyreactivity |
| QVQLVESVGGLVQAGCSLRLSCAASGSTFEVYAMGWYRQAPGKESELVATITWSGGSTYYADSVKGRFTISRDNAKTTVYLQMNSLKPEDTAVYYCNAVIRYYFWGKYYLYYYWGQGTQVTVSS | high polyreactivity |
| QVQLVESVGGLVQAGGILRLSCGASGRTFTGYTMRWYRQEPGKERELVATISRRGRSTYYADSVKGRFTISRDNAKNTVYLQMNSLKPEDTAVYYCAAEKPRAVYFEYDYWGLGTQVTVSS | high polyreactivity |
| QVQLVESVGGLVQAGGRLRLSCAASGSTFRYYAMGRYRPATGKESELVAAISRSGGSTYYADSVKGRFTISRDNAKNTVYLQMNSLKTEDTAVYYSNGRYYTFYSIYDYWGQGTQVTVSS | high polyreactivity |
| QVQLVESVGGLVQAGGSLLLSCAASGFTFGPYAMGWYRQAPGKERELVAAISRSGGSTYYSDSVKGRFTISRYNAKNTVYLQLNSLKPEDTAVYYCAACSAYLWGQGTQVTVSS | low polyreactivity |
| QVQLVESVGGLVQAGGSLRLICAASGSIFGVYAMGWYRQAPGKERELVAVIRWRGGSTYYADSVKGRFTISRDYAKNTVFLQMNILKPEDTAVYYCAARLHIVVATYDRRYDYWGQGTQVTVSS | low polyreactivity |
| QVQLVESVGGLVQAGGSLRLICAASGSIFVPNTMGWYRQAPGKERELVAAINISGGNTYYADSVKGRFTISRDNAKNTVYLQMNSLKPEDTAVYYCAAVWFKVWSFAGDWGQGTQVTVSS | low polyreactivity |
| QVQLVESVGGLVQAGGSLRLICAASGSTFPSYAMGWYRQAPGKEREVVAAINSGGGTNYADSVKGRFTISRDNAKYTVYLQMNSLKPEDTAVYYCAKSRYDYTKTEGGYWGQGTQVTVSS | low polyreactivity |
| QVQLVESVGGLVQAGGSLRLSCAASAFNFDYNAMGWYRQAPGKERELVAVISSSGSRTYYADSVKGRFTISRDNAKNTVYLQMNSLKPEDTAVYYCAAARIGTLDYWGQGTQVTVSS | high polyreactivity |

| Sequence | polyreactivity (PSR sort gate) |
| --- | --- |
| QVQLVESVGGLVQAGGSLRLSCAASGFIFGYNAMGWYRQAPGKERELVAAIDSGDSTYYADSVKGRFTISRDNAKNTVYLQMNSLKPEDTAVYFCATDVTFVYDFGYFQYDYWGQGTQVTVSS | low polyreactivity |
| QVQLVESVGGLVQAGGSLRLSCAASGFIFWDYAMGWYRQAPGKERELVAAISDSGGDTYYADSVKGRFTISRDIAKNTVYLQMNSLKPEDTAVYYCAADVELWVFRGQQYDYWGQGTQVTVSS | low polyreactivity |
| QVQLVESVGGLVQAGGSLRLSCAASGFTFHGYAMGWYRQAAGKERELVAAIRSGDRTYYADSVKGRFTISRDNAKNTVYLQMNSLKPEDTAVYYCDAGSYFRDSYARIYRWFYYWGQGTQVTVSS | low polyreactivity |
| QVQLVESVGGLVQAGGSLRLSCAASGFTFSSYSMGWYRQAPGKERELVAAITISGGRTYYADSVKGRFTISRDNAKNTVYLQMNSLKPEDTAVYYCAARYVEGQNHYGYRGQGTQVTVSS | high polyreactivity |
| QVQLVESVGGLVQAGGSLRLSCAASGFTFVDNAMGWYRQAPGKERELVAAISWTGVGSTYYADSVKGRFTISRDNAKNTVYLQMNSLKPEETAVYYCAADGLSRGVPDEFDYWGQGTQVTVSS | low polyreactivity |
| QVQLVESVGGLVQAGGSLRLSCAASGGKFISYAMGRYRQAPRKERELVAAITSSGGSTYDADSVKGRFTISRDDAKNTVYLQMNSLKPEDTGVYYCAADHSTVLDVGSWGQGTQVTVSS | low polyreactivity |
| QVQLVESVGGLVQAGGSLRLSCAASGGMGWYRQAPGKERELVATISSVGSTNYADSVKGRFTISRDNAKNTVYLQMNSLKPEDTAVYYCNATGVQYFLYGYWGQGTQVTVSS | low polyreactivity |
| QVQLVESVGGLVQAGGSLRLSCAASGGTFQHYTMGWYRQAPGKERELVAAISLSGTRTYYADSVKGRFTISRDNAKNTVYLQMNSLKPEDTAVYYCAARYGVEYWGQGTQVTVSS | low polyreactivity |
| QVQLVESVGGLVQAGGSLRLSCAASGITFRWNAMGRYRQATGKERELVAAIRRSGRTYYADSVKGRFTISRDNAKNTVYLQMNSLKPEDTAVYYCAAVSGYRSSKYDYWGQGTQVTVSS | high polyreactivity |
| QVQLVESVGGLVQAGGSLRLSCAASGITFWKYTMGWYRQAPGKERELVAAITGRGGSTYYADSVKGRFTISRDNAKNTVYLQMNSLKPEDTAVYYCAADPYHLQTRFSGLAEFYYWGQGTQVTVSS | low polyreactivity |
| QVQLVESVGGLVQAGGSLRLSCAASGITFYKYAMGWYRQAPGKERELVASIDRVGITNYADSVKGRFTISRDNAKNTVYLQMNSLKPEDTAVFYCNADYYRYYSITYGGDYWGQGTQVTVSS | high polyreactivity |
| QVQLVESVGGLVQAGGSLRLSCAASGITFYWYAMGWYRQAPGKERELVASITGNGGGTSYADSVKGRFTISRDNAKNTVYLQMNSLKPEDTAVYYCNTSVGGKEYDSWGQGTQVTVSS | low polyreactivity |
| QVQLVESVGGLVQAGGSLRLSCAASGLIFFGNTMGWYRQAPGKDRELVAAISKRGTTYYADSVKGRFKISRDNAKNTVYLQMNSLKPEDTAVYYCAAGGTFFHRLDYYYRSDYWGQGTQVTVSS | high polyreactivity |
| QVQLVESVGGLVQAGGSLRLSCAASGLILRFYAMVWYRQAPGKERELVAAISRNGGSTYYADSVKGRFTISRDNAKNTVYLQMNSLKPEDTAVYYCAVEYYVSWKLDYWGQGTQVTVSS | high polyreactivity |
| QVQLVESVGGLVQAGGSLRLSCAASGRIFEVYVMGWYRQAPGKERELVAAISTGGSTYYADSVKGRFTISRDNAKNTVYLQMNSLKPEDTAVYYCAARKTRRYGSGHDYWGQGTQVTVSS | high polyreactivity |
| QVQLVESVGGLVQAGGSLRLSCAASGRIFHRYTMGWYRQAPGKEREFVAAITTRAGSTYYADSVKGRFTISRDNAKNTVYLQMNSLKPEDTAVYYCNIRRHSLYGGTTTRYDYWGQGTQVTVSS | high polyreactivity |
| QVQLVESVGGLVQAGGSLRLSCAASGRIFLVYVMGWYRQAPGKERELVAAISASDGSTYYADSVKGRFTISRDNAKNTVYLQMNSLKPEDTAVYYCAEWGYSLDSNSYRELNYWGQGTQVTVSS | low polyreactivity |
| QVQLVESVGGLVQAGGSLRLSCAASGRTFRTYTMGWYRQAPGKERGLVAAITSTGSTYYADSVKGRFTISRDNAKNTVYLQMNSLKPEDTAVYYCNVVRRLRPYRGTGPNLEYYYWGQGTQVTVSS | high polyreactivity |
| QVQLVESVGGLVQAGGSLRLSCAASGRTFRYYAMGWYRQAPGKERELVAAISKTGGSTYYADSVKGRFTISRDNAKNTVYLQMNSLKPEDTAVYYCAAQSGWGYSTYYYWGQGTQVTVSS | high polyreactivity |
| QVQLVESVGGLVQAGGSLRLSCAASGRTFVLNTMGWYRQAPGKERELVAAISKSGGSTYYADSVKGRFTISRDNAKNTVYLQMNSLKPEDTAVYYCAARTRQLEYNSWGEGTQVTVSS | high polyreactivity |
| QVQLVESVGGLVQAGGSLRLSCAASGRTFVVYAMGWYRQEPGKERELVAAIRVSDGSTYYADSEKGRFTISREISKNTVYLQMNSLNPEDTAVYYCNAESFRGFYYWGQGTQVTVSS | high polyreactivity |

— the nanobody polyreactivity screen of Harvey et al. (2022)
